In assay [1] the target is T1, human MerTK (human, UniProt Q12866 26-499).
T1 construct: also called HuMER
T1 sequence: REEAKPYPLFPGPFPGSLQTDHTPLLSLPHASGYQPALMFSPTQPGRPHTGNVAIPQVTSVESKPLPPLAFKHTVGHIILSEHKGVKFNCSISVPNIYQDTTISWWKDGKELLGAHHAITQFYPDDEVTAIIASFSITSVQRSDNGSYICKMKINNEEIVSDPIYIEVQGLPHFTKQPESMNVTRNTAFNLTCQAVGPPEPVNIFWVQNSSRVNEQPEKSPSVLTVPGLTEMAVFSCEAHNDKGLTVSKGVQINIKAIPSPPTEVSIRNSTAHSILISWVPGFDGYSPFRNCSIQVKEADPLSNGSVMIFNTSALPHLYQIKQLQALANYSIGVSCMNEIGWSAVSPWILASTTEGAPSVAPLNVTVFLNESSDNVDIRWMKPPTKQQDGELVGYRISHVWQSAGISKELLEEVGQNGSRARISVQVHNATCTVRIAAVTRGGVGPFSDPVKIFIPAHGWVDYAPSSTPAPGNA
In words: SPR BIAcore T200, Ab captured, 37C. The method, then: (§1) Each rabbit and humanized antibody was subjected to a binding assay to determine its affinity to MerTK derived from various species.
(§2) All binding affinity determinations were obtained using Surface Plasmon Resonance (SPR) measurements from a BIAcore™-T200 instrument. Briefly, each rabbit or humanized antibody was captured to achieve approximately 100 RU (Response Units). Then, 3-fold serial dilutions of MerTK from various species (0.4 nM to 100 nM) diluted in HBS-EP buffer (0.01M HEPES pH 7.4, 0.15M NaCl, 3 mM EDTA and 0.05% v/v surfactant P20) was injected into the BIAcore™-T200 instrument at 25° C. or 37° C. with a flow rate of 30 μl/min. Association rates (kₒₙ) and dissociation rates (koff) were calculated using a simple one-to-one Langmuir binding model (BIAcore T200 evaluation software version 2.0). The equilibrium dissociation constant (KD) was calculated as the ratio koff/kₒₙ.

In assay [2] the target is T2, mouse MerTK (mouse, UniProt Q60805 23-496).
T2 construct: also called MuMER
T2 sequence (looked up): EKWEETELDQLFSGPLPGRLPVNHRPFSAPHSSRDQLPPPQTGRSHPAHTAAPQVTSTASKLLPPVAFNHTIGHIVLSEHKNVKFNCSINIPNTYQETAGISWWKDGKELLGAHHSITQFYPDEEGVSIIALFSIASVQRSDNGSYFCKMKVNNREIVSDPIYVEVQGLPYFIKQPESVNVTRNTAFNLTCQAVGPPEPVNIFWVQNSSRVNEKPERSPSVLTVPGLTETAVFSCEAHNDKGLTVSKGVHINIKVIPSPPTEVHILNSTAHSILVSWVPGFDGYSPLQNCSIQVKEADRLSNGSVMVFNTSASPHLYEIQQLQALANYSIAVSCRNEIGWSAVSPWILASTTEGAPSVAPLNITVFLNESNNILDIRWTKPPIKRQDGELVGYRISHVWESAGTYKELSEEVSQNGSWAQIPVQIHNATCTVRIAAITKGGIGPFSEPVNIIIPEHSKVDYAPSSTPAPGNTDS
In words: SPR BIAcore T200, Ab captured, 37C. The method, then:
as §1, §2
A general note: Surface plasmon resonance follows binding to a sensor surface in real time, without labels.

Assay [3] deals with T3, cynomolgus monkey MerTK (cynomolgus monkey, UniProt A0A2K5V1H9 32-505).
T3 construct: Soluble analyte in SPR; also called Cyno MerTK
T3 sequence: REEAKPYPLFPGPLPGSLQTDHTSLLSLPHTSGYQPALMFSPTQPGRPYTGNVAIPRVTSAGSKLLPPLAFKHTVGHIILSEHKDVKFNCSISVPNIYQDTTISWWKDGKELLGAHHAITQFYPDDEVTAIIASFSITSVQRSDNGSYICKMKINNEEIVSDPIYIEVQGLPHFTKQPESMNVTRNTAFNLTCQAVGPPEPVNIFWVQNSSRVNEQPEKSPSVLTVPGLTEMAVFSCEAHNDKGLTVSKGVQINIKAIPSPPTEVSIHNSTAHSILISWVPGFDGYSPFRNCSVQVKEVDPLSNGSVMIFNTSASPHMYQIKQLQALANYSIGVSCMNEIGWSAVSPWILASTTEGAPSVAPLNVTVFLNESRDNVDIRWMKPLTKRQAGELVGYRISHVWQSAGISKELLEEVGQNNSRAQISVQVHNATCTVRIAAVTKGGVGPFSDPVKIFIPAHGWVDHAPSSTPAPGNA
In words: SPR BIAcore T200, Ab captured, 37C. As to the method:
as §1, §2

For assay [4], the target named is T4, human MerTK on human macrophages (human, UniProt Q12866 21-999).
T4 sequence: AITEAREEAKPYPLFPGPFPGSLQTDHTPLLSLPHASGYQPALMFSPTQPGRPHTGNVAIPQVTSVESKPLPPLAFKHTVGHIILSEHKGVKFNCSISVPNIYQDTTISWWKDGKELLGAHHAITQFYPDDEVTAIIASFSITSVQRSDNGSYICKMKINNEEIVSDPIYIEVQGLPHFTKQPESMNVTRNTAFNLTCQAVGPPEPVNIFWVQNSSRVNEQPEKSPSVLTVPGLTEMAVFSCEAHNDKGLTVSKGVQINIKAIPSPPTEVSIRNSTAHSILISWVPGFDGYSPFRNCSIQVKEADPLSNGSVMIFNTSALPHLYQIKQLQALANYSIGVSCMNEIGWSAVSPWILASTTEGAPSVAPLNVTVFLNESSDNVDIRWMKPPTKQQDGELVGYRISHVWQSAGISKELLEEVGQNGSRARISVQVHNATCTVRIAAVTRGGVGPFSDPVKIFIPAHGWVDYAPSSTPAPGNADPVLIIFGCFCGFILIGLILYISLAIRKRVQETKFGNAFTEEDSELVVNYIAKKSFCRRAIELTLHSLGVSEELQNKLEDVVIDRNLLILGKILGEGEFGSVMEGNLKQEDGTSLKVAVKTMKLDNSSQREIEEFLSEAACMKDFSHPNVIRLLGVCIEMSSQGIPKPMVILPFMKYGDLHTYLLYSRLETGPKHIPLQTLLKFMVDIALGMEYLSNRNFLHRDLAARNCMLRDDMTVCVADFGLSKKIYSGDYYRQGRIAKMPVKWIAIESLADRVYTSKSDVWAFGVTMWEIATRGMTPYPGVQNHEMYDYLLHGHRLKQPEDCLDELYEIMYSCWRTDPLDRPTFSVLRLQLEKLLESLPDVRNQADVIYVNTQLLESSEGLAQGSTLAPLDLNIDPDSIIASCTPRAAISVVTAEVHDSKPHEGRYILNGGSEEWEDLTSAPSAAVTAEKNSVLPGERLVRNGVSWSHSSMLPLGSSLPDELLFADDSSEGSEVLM
In words: cell-based or functional assay.

B1: h10F7.v16 (antibody, V domains shown)
VH: EVQLVESGGGLVQPGGSLRLSCAVSGFSLSGYAMSWVRQAPGKGLEYIGVISSSGSSYYPSWAKGRFTISKDNSKNTLYLQMGSLRAEDMAVYYCARVQFYVGYAVYGYGIIDRLDLWGQGTLVTVSS
VL: DIVLTQSPDSLAVSLGERATINCQSSKSVYNNNWLSWYQQKPGQPPKLLIYRASTLESGVPDRFSGSGSGTDFTLTISSLQAEDVAVYFCAGGYSSSSSANAFGGGTKVEIK
notes: Humanized, human IgG1; also called 10F7 Fully Humanized; 10F7 Humanized polished mAb
As to B1, the values for the Kd in assay [1], in assay [2] and in assay [3] were 4.9 nM, 1.4 nM and 2.1 nM, respectively. Also, the “IC50 (nM), efferocytosis by human macrophages, Average (3 Donors)” value in assay [4] is 0.41 nM.

By Kd is commonly meant the constant that tells how readily two partners part at equilibrium.
